One series relates to NCI-H446 tumor tissues. In words: Tumor infiltrating lymphocyte (TIL) analysis of tumor tissues. It is filed as in vivo, humanized NOG mice. The note with it: in combination with a chemotherapeutic agent, paclitaxel or capecitabine; sixth day after antibody-38 administration; compared to either alone. Here is the method: The tumor samples were prepared as follows. The tumor samples when antibody-38 was used in combination with a chemotherapeutic agent in the humanized NOG mouse model were prepared by the procedure described below. 2.5 Gy of X ray was irradiated to NOG mice (In-Vivo Science Inc., Y). On the following day, 1×10^5 CD34-positive hematopoietic stem cells which are derived from umbilical cord blood were transplanted into the NOG mice by tail vein injection. After 16 to 20 weeks, each of human cancer cell lines (MKN45 and NCI-H446) was mixed with Matrigel™ Basement Membrane Matrix, and transplanted subcutaneously into the humanized NOG mice. The day of transplantation was defined as Day 0.
When tumor was established, the mice were separated into groups based on tumor size and body weight. Antibody-38 and the pharmaceutical agents for use in combination were administered according to the dose and dosing regimen described in Table 21. The mice were euthanized at the timing described in Table 21, and tumor was excised and preserved for use in tumor infiltrating lymphocyte (TIL) analysis, pathological analysis, or RNA analysis.
TIL analysis was performed as follows. Tumor tissues which were dissected from mice transplanted with NCI-H446 described in Table 21 on the sixth day after antibody-38 administration were dissociated into cells by enzyme treatment using gentle MACS™ Octo Dissociator. […]

Series [1] concerns LLC1/hGPC3 syngeneic tumor. Put plainly: In vivo drug efficacy, human CD3εδγ gene-modified mouse model. The note with it: 5 mg/kg Day 11 and Day 14, compared to solvent group or anti-human GPC3, anti-mouse CTLA-4, PD-1, PD-L1 antibodies at 25 mg/kg. Details: species or system human CD3εδγ gene-modified mice. Here is the method: Methods called an NOD scid/T cell-injected model, a humanized NOG mouse model, and a human CD3εδγ gene-modified mouse model were used in the in vivo drug efficacy evaluation. Assay using an NOD scid/T cell-injected model was performed as follows. […] T cells expanded by culturing human PBMCs in vitro were injected into the NOD scid mice with confirmed tumor establishment. The mice were treated by administering bispecific antibody-38 and bispecific antibody-30, -31, -32, or -33. Assay using a humanized NOG mouse model was performed as follows. CD34-positive hematopoietic stem cells derived from umbilical cord blood were transplanted into NOG mice by tail vein injection. Human T cells are constantly supplied in the mice, which are called humanized NOG mice. The PC-10 cell line was transplanted into humanized NOG mice. The humanized NOG mice with confirmed establishment of PC-10 tumor were treated by administering antibody-38. Assay using a human CD3εδγ gene-modified mouse model was performed as follows. Cells of mouse-derived cell line forced to express human GPC3 were transplanted into a human CD3εδγ gene-modified mouse model, which had been prepared according to Reference Example 10. The human CD3εδγ gene-modified mice with confirmed tumor establishment were treated by administering antibody-38. […]

Series [2] deals with cell lines derived from various cancer types (GPC3-expressing target cells). Put plainly: TDCC activity by LDH release test with human PBMCs as effector cells. Type of series: cell-based. The note with it: about 24 hours. Here is the method: TDCC activity of each test antibody was measured by the method described below. Human peripheral blood mononuclear cells (hereinafter referred to as human PBMCs) were used as effector cells and TDCC activity of each test antibody was measured as follows.
50 ml of peripheral blood was collected from a healthy person in Chugai Pharmaceutical Co. Ltd. using a syringe pre-loaded with 500 μl of 5000 units/5 ml heparin solution. The peripheral blood diluted two-fold with PBS was divided into four aliquots and added to Leucosep tubes for lymphocyte separation (GE Healthcare) which had been loaded with 15 ml of Ficoll-Paque PLUS and centrifuged in advance. […]
TDCC activity was assessed by an LDH release method (LDH Cytotoxicity Detection Kit, TAKARA). […] The absorbance at 490 to 492 nm was measured with a plate reader. The reference wavelength used was 600 to 620 nm, and the absorbance was subtracted from that at 490 to 492 nm. […]
Cytotoxic activity was determined based on this equation.
Here, A represents the absorbance of a mixture of target cells, effector cells, and antibody; B represents the absorbance of effector cells; C represents the absorbance of target cells; and D represents the absorbance of target cells with Triton X-100 added.
(Release of lactate dehydrogenase indicates damage to the cell membrane.)

B1: antibody-38: anti-human CD3ε chain and anti-human GPC3 bispecific antibody; H chains SEQ ID NO: 385 and 402, common L chains SEQ ID NO: 410 (antibody)
heavy 1: QVQLVQSGAEVKKPGASVTVSCKASGYTFTDYEMHWIRQPPGEGLEWIGAIDGPTPDTAYSEKFKGRVTLTADKSTSTAYMELSSLTSEDTAVYYCTRFYSYTYWGQGTLVTVSSASTKGPSVFPLAPCSRSTSESTAALGCLVKDYFPEPVTVSWNSGALTSGVHTFPAVLQSSGLYSLSSVVTVPSSSLGTQTYTCNVDHKPSNTKVDKRVESKYGPPCPPCPAPEFRGGPKVFLFPPKPKDTLMISRTPEVTCVVVDVSQEDPEVQFNWYVDGVEVHNAKTKPREEQFASTYRVVSVLTVLHQDWLNGKEYKCKVSNKGLPSSIEKTISKAKGQPREPQVYTLPPSQEEMTKNQVSLTCLVKGFYPSDIAVEWESNGQPENNYKTTPPVLDSDGSFFLYSKLTVDKSRWQEGNVFSCSVMHEALHNHYTQESLSLSP
heavy 2: QVQLVESGGGVVQPGGSLRLSCAASGFTFSNAWMHWVRQAPGKGLEWVAQIKDKSQNYATYVAESVKGRFTISRADSKNSIYLQMNSLKTEDTAVYYCRYVHYAAGYGVDIWGQGTTVTVSSASTKGPSVFPLAPCSRSTSESTAALGCLVKDYFPEPVTVSWNSGALTSGVHTFPAVLQSSGLYSLSSVVTVPSSSLGTKTYTCNVDHKPSNTKVDKRVESKYGPPCPPCPAPEFRGGPKVFLFPPKPKDTLMISRTPEVTCVVVDVSQEDPEVQFNWYVDGVEVHNAKTKPREEQFASTYRVVSVLTVLHQDWLNGKEYKCKVSNKGLPSSIEKTISKAKGQPREPQVYTLPPSQKEMTKNQVSLTCLVKGFYPSDIAVEWESNGQPENNYKTTPPVLDSDGSFFLYSKLTVDKSRWQEGNVFSCSVMHEALHNHYTQKSLSLSP
light: DIVMTQSPLSLPVTPGEPASISCRSSQPLVHSNRNTYLHWYQQKPGQAPRLLIYKVSNRFSGVPDRFSGSGSGTDFTLKISRVEAEDVGVYYCGQGTQVPYTFGQGTKLEIKRTVAAPSVFIFPPSDEQLKSGTASVVCLLNNFYPREAKVQWKVDNALQSGNSQESVTEQDSKDSTYSLSSTLTLSKADYEKHKVYACEVTHQGLSSPVTKSFNRGEC
modifications: An artificially generated sequence
Consider B1, for which the “cell populations expressing T cell markers, activated T cell markers, and proteins involved in cytotoxic activity” value in the series with NCI-H446 tumor tissues was “increased”. Further, the anti-tumor effect result in series [1] was “evident anti-tumor effect”. Moreover, the “TDCC activity (LDH release)” value in series [2] was “clearly observed”.

For the origin of these results see patent publication US20250066503A1, “CELL INJURY INDUCING THERAPEUTIC DRUG FOR USE IN CANCER THERAPY” (CHUGAI SEIYAKU KABUSHIKI KAISHA, priority 2016, published 2025).
